Reference: patent EP4692122A1, “HUMANIZED ANTIBODIES TARGETING EPHA10” (priority 2023, dated 2024)

T1: mouse EphA10 on mouse EphA10 overexpressing cell line (mouse, UniProt Q8BYG9 23-1007)
T1 construct: whole, on cells; Parent cell line of the mouse EphA10 overexpressing line not clearly stated
T1 sequence (looked up): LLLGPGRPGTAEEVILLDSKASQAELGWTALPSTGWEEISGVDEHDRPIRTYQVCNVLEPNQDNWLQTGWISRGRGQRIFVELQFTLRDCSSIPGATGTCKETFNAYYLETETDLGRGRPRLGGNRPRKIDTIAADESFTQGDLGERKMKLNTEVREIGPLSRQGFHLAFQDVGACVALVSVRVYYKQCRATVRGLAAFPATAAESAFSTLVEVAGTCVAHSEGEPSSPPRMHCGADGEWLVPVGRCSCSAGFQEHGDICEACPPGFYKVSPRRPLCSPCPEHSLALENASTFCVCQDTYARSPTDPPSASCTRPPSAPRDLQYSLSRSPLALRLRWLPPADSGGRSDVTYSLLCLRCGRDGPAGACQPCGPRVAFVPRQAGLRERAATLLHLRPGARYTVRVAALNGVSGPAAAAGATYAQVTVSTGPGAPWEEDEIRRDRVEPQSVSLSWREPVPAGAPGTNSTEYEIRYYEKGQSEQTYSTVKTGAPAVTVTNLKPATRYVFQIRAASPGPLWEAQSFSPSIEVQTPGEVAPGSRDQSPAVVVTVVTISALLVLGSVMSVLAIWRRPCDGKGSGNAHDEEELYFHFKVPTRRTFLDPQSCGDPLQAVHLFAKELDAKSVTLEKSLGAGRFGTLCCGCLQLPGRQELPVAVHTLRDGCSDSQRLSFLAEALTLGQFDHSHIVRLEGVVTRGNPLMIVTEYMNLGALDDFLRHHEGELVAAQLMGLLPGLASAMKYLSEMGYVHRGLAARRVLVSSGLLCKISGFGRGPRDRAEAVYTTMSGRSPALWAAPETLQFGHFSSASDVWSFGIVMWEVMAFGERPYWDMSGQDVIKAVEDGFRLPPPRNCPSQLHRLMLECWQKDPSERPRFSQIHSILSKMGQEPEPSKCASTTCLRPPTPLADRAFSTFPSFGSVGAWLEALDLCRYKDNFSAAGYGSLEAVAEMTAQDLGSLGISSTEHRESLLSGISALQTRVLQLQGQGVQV

T2: human EphA10 on MDA-MB-231 human EphA10 overexpressing cell line (human, UniProt Q5JZY3 34-1008)
T2 construct: whole, on cells; also called hEphA10; cell-expressing-EphA10
T2 sequence (looked up): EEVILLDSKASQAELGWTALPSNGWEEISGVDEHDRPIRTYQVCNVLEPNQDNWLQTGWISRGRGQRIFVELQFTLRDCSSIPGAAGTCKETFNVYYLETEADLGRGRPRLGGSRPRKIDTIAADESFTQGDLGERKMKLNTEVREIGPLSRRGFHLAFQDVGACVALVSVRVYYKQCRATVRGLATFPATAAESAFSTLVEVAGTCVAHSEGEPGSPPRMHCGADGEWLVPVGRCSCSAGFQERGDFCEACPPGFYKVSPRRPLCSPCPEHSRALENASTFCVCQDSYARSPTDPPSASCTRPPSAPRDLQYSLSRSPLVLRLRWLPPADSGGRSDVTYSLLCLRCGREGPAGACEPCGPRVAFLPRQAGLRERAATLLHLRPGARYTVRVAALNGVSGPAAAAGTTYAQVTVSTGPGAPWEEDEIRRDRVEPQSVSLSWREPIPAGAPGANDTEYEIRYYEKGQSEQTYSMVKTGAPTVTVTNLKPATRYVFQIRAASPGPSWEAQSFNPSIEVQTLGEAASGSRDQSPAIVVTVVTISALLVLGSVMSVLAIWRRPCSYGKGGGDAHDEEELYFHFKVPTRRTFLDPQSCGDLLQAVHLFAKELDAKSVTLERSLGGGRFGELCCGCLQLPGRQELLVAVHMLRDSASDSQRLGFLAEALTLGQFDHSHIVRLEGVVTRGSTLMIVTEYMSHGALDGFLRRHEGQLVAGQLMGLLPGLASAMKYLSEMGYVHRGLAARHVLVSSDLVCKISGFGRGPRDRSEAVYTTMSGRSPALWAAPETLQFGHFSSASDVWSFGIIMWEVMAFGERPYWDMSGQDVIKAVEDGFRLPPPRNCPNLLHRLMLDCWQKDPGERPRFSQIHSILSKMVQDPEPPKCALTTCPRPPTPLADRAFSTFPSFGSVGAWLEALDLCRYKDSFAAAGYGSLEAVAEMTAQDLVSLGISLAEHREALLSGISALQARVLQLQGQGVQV

T3: mEphA10-Fc (mouse EphA10 fused with human Fc) (mouse; human, UniProt Q8BYG9 23-565)
T3 construct: extracellular domain; not shown: human Fc
T3 sequence (looked up): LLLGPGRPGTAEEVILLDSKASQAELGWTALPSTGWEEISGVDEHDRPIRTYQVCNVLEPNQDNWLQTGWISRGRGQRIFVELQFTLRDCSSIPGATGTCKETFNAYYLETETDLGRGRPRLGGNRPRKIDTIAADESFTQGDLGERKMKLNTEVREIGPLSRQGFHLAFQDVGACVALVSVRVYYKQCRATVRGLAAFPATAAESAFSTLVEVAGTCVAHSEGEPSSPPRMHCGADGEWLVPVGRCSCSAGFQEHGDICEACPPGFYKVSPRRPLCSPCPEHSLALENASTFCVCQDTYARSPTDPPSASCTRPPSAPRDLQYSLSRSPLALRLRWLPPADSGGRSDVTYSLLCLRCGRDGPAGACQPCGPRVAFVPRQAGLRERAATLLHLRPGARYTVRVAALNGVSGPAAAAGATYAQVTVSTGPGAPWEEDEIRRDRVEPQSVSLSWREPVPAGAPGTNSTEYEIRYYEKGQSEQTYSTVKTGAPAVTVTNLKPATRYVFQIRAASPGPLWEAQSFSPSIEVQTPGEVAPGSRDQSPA


How the values were obtained:
[1] = molecular target: T1, mouse EphA10 on mouse EphA10 …; assay: flow cytometry on mouse EphA10 overexpressing cells, 500 ng antibody
[2] = molecular target: T2, human EphA10 on MDA-MB-231 human EphA10 …; assay: flow cytometry on MDA-MB-231 human EphA10 overexpressing cells, 500 ng antibody
[3] = molecular target: T3, mEphA10-Fc (mouse EphA10 fused with …); assay: ELISA, mEphA10-Fc coated, anti-human kappa HRP

Binder	binding result [1]	binding result [2]	binding result [3]
EphA10-specific humanized antibody 1-1 (antibody, V domains shown, Expressed in Expi293F cells in IgG form; detected with anti-human kappa chain; also called IMGT 1-1) VH: QVTLKESGPTLVKPTQTLTLTCTFSGFSLSTSGMGVGWIRQPPGKALEWLAHIWWDDVKRYNPALKSRLTITKDTSKNQVVLTMTNMDPVDTATYYCARTSFPAGVDYWGQGTLVTVSS VL: DVVMTQSPLSLPVTLGQPASISCRSSQSLQNSNGNTCLNWFQQRPGQSPRRLIYRVSNRFSGVPDRFSGSGSGTDFTLKISRVEAEDVGVYYCLQVTHVPFTFGQGTKLEIKR	binds	binds	–
antibody A.7 (antibody, V domains shown, also called A7 antibody) VH: QVTLKESGPTLVKPTQTLTLTCTFSGFSLSTSGMGVGWIRQPPGKALEWLAHIWWDDVKRYNPALKSRLTITKDTSKNQVVLTMTNMDPVDTATYYCARTSFPAGVDYWGQGTLVTVSS VL: DVVMTQSPLSLPVTLGQPASISCRSSQSLQNSNGNTYLNWFQQRPGQSPRRLIYRVSNRFSGVPDRFSGSGSGTDFTLKISRVEAEDVGVYYCLQGTHVPFTFGQGTKLEIKR	–	–	binds

Second part, the binder after the results:

binding result [1]	binding result [2]	binding result [3]	Binder
binds	binds	–	EphA10-specific humanized antibody 1-2 (antibody, V domains shown, Expressed in Expi293F cells in IgG form; detected with anti-human kappa chain; also called IMGT 1-2) VH: QVTLKESGPTLVKPTQTLTLTCTFSGFSLSTSGMGVGWIRQPPGKALEWLAHIWWDDVKRYNPALKSRLTITKDTSKNQVVLTMTNMDPVDTATYYCARTSFPAGVDYWGQGTLVTVSS VL: DIVMTQTPLSLSVTPGQPASISCRSSQSLQNSNGNTCLNWYLQKPGQSPQLLIYRVSNRFSGVPDRFSGSGSGTDFTLKISRVEAEDVGVYYCLQVTHVPFTFGQGTKLEIKR
–	–	binds	antibody 2-W (antibody, V domains shown, 1-2 with the free light chain CDR cysteine replaced by tryptophan; IgG form; also called 2W antibody; W2) VH: QVTLKESGPTLVKPTQTLTLTCTFSGFSLSTSGMGVGWIRQPPGKALEWLAHIWWDDVKRYNPALKSRLTITKDTSKNQVVLTMTNMDPVDTATYYCARTSFPAGVDYWGQGTLVTVSS VL: DIVMTQTPLSLSVTPGQPASISCRSSQSLQNSNGNTWLNWYLQKPGQSPQLLIYRVSNRFSGVPDRFSGSGSGTDFTLKISRVEAEDVGVYYCLQVTHVPFTFGQGTKLEIKR
